Assay results taken from patent US20040038876A1.

Biological target: Ptc-1
Experiment: Ptc-1 binding assay, format not described

Ptc binding [nM]	Substance
35	mutant 21 (Shh C1II/A169C + N92C), 5 K PEG (from UniProt Q15465 25-197) (ligand)
2.3	mutant 44 (Shh C1II/A169C + E113C), unmodified (from UniProt Q15465 25-197) (ligand)
3.9	mutant 22 (Shh C1II/A169C + S154C), unmodified (from UniProt Q15465 25-197) (ligand)
8.3	mutant 22 (Shh C1II/A169C + S154C), NEM-modified (from UniProt Q15465 25-197) (ligand)
3	mutant 20 (Shh C1II/A169C + N68C), 5 K PEG (from UniProt Q15465 25-197) (ligand)
42	wild type Shh, 5 K PEG (from UniProt Q15465 24-197) (ligand)
3.7	mutant 25 (Shh C1II/A169C + S133C), unmodified (from UniProt Q15465 25-197) (ligand)
0.3	mutant 17 (Shh C1II/A169C + N27C), NEM-modified (from UniProt Q15465 25-197) (ligand)
33	mutant 25 (Shh C1II/A169C + S133C), 5 K PEG (from UniProt Q15465 25-197) (ligand)
3	mutant 19 (Shh C1II/A169C + Y57C), 5 K PEG (from UniProt Q15465 25-197) (ligand)
85	mutant 22 (Shh C1II/A169C + S154C), 5 K PEG (from UniProt Q15465 25-197) (ligand)
0.5	mutant 44 (Shh C1II/A169C + E113C), NEM-modified (from UniProt Q15465 25-197) (ligand)
12	mutant 44 (Shh C1II/A169C + E113C), 5 K PEG (from UniProt Q15465 25-197) (ligand)
0.4	mutant 25 (Shh C1II/A169C + S133C), NEM-modified (from UniProt Q15465 25-197) (ligand)
3	mutant 20 (Shh C1II/A169C + N68C), unmodified (from UniProt Q15465 25-197) (ligand)
1.1	Shh C1II/A169C, unmodified (from UniProt Q15465 25-197) (ligand)
0.3	mutant 21 (Shh C1II/A169C + N92C), NEM-modified (from UniProt Q15465 25-197) (ligand)
1	Shh C1II/A169C, 5 K PEG (from UniProt Q15465 25-197) (ligand)
1	mutant 19 (Shh C1II/A169C + Y57C), NEM-modified (from UniProt Q15465 25-197) (ligand)
2	mutant 18 (Shh C1II/A169C + N46C), NEM-modified (from UniProt Q15465 25-197) (ligand)
0.6	mutant 24 (Shh C1II/A169C + S112C), NEM-modified (from UniProt Q15465 25-197) (ligand)
2.4	wild type Shh, unmodified (from UniProt Q15465 24-197) (ligand)
2	mutant 20 (Shh C1II/A169C + N68C), NEM-modified (from UniProt Q15465 25-197) (ligand)
1.4	wild type Shh, NEM-modified (from UniProt Q15465 24-197) (ligand)
32	mutant 17 (Shh C1II/A169C + N27C), 5 K PEG (from UniProt Q15465 25-197) (ligand)
2	mutant 18 (Shh C1II/A169C + N46C), 5 K PEG (from UniProt Q15465 25-197) (ligand)
8	mutant 24 (Shh C1II/A169C + S112C), 5 K PEG (from UniProt Q15465 25-197) (ligand)
0.4	Shh C1II/A169C, NEM-modified (from UniProt Q15465 25-197) (ligand)
1.3	mutant 17 (Shh C1II/A169C + N27C), unmodified (from UniProt Q15465 25-197) (ligand)
